The assay has as its target T1, PARK7, endogenous in SN4741 cells (mouse (endogenous in SN4741)), Q99LX0.
T1 chain: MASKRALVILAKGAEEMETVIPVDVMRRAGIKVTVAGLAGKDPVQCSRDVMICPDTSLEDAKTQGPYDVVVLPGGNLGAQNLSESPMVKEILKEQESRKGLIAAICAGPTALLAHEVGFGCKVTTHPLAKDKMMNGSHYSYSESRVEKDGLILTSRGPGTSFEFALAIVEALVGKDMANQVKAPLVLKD
Briefly: cross-linking. As to conditions: remark: other sources report otherwise.

The term stoichiometry N denotes the number of molecules, sites or subunits per partner or assembly.

B1: PARK7, endogenous in SN4741 cells, Q99LX0 1-189 (natural protein)
chain: T1 chain
Consider B1, for which the stoichiometry N stood at 2.
